# Biological target: the molecule itself
# Assay: negative-stain electron microscopy; 2D class averages of negatively stained purified protein; 3XFLAG-SHIP164_(Δ901-1099) at 50 nM, 2% uranyl acetate; the MBP fusion locates the N-termini at the two ends of the rod
row,Protein,stoichiometry N
1,"3XFLAG-SHIP164^Δ901-1099 (natural protein, SHIP164 (UHRF1BP1L), human, codon-optimised ORF from Genscript, lacking the predicted unstructured segment residues 901-1099; also called 3×FLAG-SHIP164_(Δ901-1099); UHRF1BP1L; source: Expi293F, transfected, purified (anti-FLAG M2 resin, Superdex 200 gel filtration); not shown: 3xFLAG, N-terminal, kept) not shown",2
2,"MBP-SHIP164 fusion (MBP fused to the N-terminus of SHIP164_(Δ901–1099)) (natural protein, SHIP164 (UHRF1BP1L), human, codon-optimised ORF, lacking residues 901-1099; Probably expressed in Expi293F and purified like m1, and it may also carry a 3xFLAG tag) not shown",2

# — article doi:10.1101/2021.11.04.467353, “SHIP164 is a Chorein Motif Containing Lipid Transport Protein that Controls Membrane Dynamics and Traffic at the Endosome-Golgi Interface” (bioRxiv, 2021)
